Measured values reported in publication PMC5885141 (Molecular imaging and biology : MIB : the official …, 2014).
Where two headings read alike, the source gives them in different places. IR800 = IRDye800CW

Tests used:
[1] = molecular target: T1, gastrin-releasing peptide receptor (human, UniProt P30550 1-384); assay: radioligand binding
[2] = molecular target: T1, gastrin-releasing peptide receptor; assay: radioligand binding; remark: listed apart in the source

T1 sequence (P30550 whole entry): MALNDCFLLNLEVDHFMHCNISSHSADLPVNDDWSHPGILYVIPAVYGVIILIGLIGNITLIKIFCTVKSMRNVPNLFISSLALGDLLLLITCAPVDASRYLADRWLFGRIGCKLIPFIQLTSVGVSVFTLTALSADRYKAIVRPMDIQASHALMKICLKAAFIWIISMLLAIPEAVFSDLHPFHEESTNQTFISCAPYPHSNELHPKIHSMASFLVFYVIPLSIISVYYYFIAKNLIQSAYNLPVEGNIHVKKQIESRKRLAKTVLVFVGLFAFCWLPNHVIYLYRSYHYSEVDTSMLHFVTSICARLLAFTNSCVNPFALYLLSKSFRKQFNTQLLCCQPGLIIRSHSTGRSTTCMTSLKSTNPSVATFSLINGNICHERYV

With IR800-GSGQWAVGHLM-NH2 [IR800-GSG-t-BBN] the IC50 [1] was 57.4 nM and the IC50 [2] was 56 nM.
